# Reference: the DeepSol protein solubility set
# Experiment: soluble on expression in E. coli; label from the status in PepcDB or PDB records
row,Sequence,soluble on expression in E. coli
1,MTIEKIDTLVIGAGQAGVAMSEHLSKQDVPHLVLERNRIAEQWRTGRWDSLVANGPAWHDRFPGLEFEEHDPDSFVPKEKIADYLVDYAKKFDAPIRTGIEVKNVERNTNGQGFIIETSQGTIEAKRVVSATGPFQVPVIPPIAKNEKITQIHSADYRNPEQLEDGAVLVVGAGSSGVQIADELQRSGRKVFLSTGPHDRPPRSYRNRDFCWWLGVLGEWDRESLEPGTEHVTIAVTGAHGGNGTVDFRALAHQGITLLGMTKEFNNGKVTFQKDLNTNVERGNKNYMDFLDSADAYIERNGLDLPEEPTARDVLSDPECMTNPILELDLAKEGITSIVWATGFALDYSWLNVDAFDENGKPAHQRGVSTEPGVYFVGQAWLSRRGSAFIWGVWHDAKHIAGHISTQRTYSAYQDASQRLEHHHHHH,soluble
2,MTIPFDHWPEWPQHSDRTRRKIEEVFQSNRWAISGYWTGEESMERKFAKAFADFNGVPYCVPTTSGSTALMLALEALGIGEGDEVIVPSLTWIATATAVLNVNALPVFVDVEADTYCIDPQLIKSAITDKTKAIIPVHLFGSMANMDEINEIAQEHNLFVIEDCAQSHGSVWNNQRAGTIGDIGAFSCQQGKVLTAGEGGIIVTKNPRLFELIQQLRADSRVYCDDSSELMHGDMQLVKKGDIQGSNYCLSEFQSAILLDQLQELDDKNAIREKNAMFLNDALSKIDGIKVMKRPPQVSRQTYYGYVFRFDPVKFGGLNADQFCEILREKLNMGTFYLHPPYLPVHKNPLFCPWTKNRYLKSVRKTEAYWRGLHYPVSERASGQSIVIHHAILLAEPSHLSLLVDAVAELARKFCVTH,soluble
3,MTITKLAWRDLVPDTDSYQEIFAQPHLIDENDPLFSDTQPRLQFALEQLLHTRASSSFMLAKAPEESEYLNLIANAARTLQSDAGQLVGGHYEVSGHSIRLRHAVSADDNFATLTQVVAADWVEAEQLFGCLRQFNGDITLQPGLVHQANGGILIISLRTLLAQPLLWMRLKNIVNRERFDWVAFDESRPLPVSVPSMPLKLKVILVGERESLADFQEMEPELSEQAIYSEFEDTLQIVDAESVTQWCRWVTFTARHNHLPAPGADAWPILIREAARYTGEQETLPLSPQWILRQCKEVASLCDGDTFSGEQLNLMLQQREWREGFLAERMQDEILQEQILIETEGERIGQINALSVIEFPGHPRAFGEPSRISCVVHIGDGEFTDIERKAELGGNIHAKGMMIMQAFLMSELQLEQQIPFSASLTFEQSYSEVDGDSASMAELCALISALADVPVNQSIAITGSVDQFGRAQPVGGLNEKIEGFFAICQQRELTGKQGVIIPTANVRHLSLHSELVKAVEEGKFTIWAVDDVTDALPLLLNLVWDGEGQTTLMQTIQERIAQASQQEGRHRFPWPLRWLNWFIPN,soluble
4,MTITSFGPANRIARTAETHPLTWRLRDDGEPVWLDEYQTKDGYAAARKALTQQAPDDIVQSVKDSGLKGRGGAGFPTGVKWGLMPKDESMNIRYLLCNADEMEPNTWKDRMLMEQLPHLLIEGMLISARALKAYRGYIFLRGEYVTAAKHLNRAVAEAKAAGLLGKNILGTGFDFELFVHTGAGRYICGEETALINSLEGRRANPRSKPPFPAAVGVWGKPTCVNNVETLCNVPAIVNNGNDWYKSLAREGSEDHGTKLMGFSGKVKNPGLWELPFGVQARELFEDYAGGMRDGFTLKCWQPGGAGTGFLLPEHLDAQMYAGGIAKVGTRMGTGLAMAVDDSVNMVSLLRNMEEFFAQESCGFCTPCRDGLPWSVKILRAIENGHGQPGDIETLLGLVNFLGPGKTFCAHAPGAVEPLGSAIKYFRSEFEAGIAPASAAMLVPGKSPTVVGALEHHHHHH,not soluble
5,MTITYSGDELFLQLRGDLLNYLCRKLSKDEAADILQEIYLRWRRQDISSIENPRAFLFTVALNLIRDQARRQAHVQTYANTMQHLFQDKPADYDLAQHCDERRQIEYLQQALDQLPENVRHAFLLFRLDGLTFAEIALQMGISSKSVARYIQHASEHCLTALAQYR,not soluble
6,MTKASDAVKGIINSNNIYTLLLNTGLVNYTKLAREIKSQVDFLTGKKVKINTIVKALTNIEIKSKPKDILLILKQSILTLEYNYKEITTENRNKIPDDAILVIKESNGYSAIIKTTDGNSLVIAKILLPPGSCTTAGITLLITEFLEINGVSVRNIYRLSKEIWIIVDSESAGKAADALNRLLYKSNDRESSPVSLVD,not soluble
7,MTKFILLALVGLAAAIDFDSSSSESCEDGNGHGHGHGNGNGNGNGNGNGNGGRANGGCETGWRHFRRPSGSWCVRVFGGRLNQGAAQSQCQSFGATLSGLRNLEEARTISNLALSVIGRSSGGIWLGARRTTACAKQHKTTSCSTTSSFRWTDSSASGTAGFVWNNVQPDNSDLNSQCAVLHAGSSAATVSNAVWQPAMMDDVTCSFDPAGRDPRSIYGYVCGKKPSRR,not soluble
8,MTKIKIVVIVGPTAVGKTALGISLAKAFNGEIISGDSQQVYRQLDIGTAKATQEEQEAAVHHLIDIREVTESYSAYDFVQDAQKSISDIVSRGKLPIIVGGTGLYLQSLLEGYHLGGQVDQEAVKAYRNELEQLDDHDLYERLQVNNITIEQVNRRRAIRALELAQFADELENAETAYEPLIIGLNDDRQVIYDRINQRVNRMIENGLLEEAKWLYEHYPTVQASRGIGYKELFPYFVGEMTLAEASDQLKQNTRRFAKRQLTWFRNRMAVSFTAITAPDYPQVVHDRVRDFLGQKEKSLEHHHHHH,not soluble
9,MTKLEVCCYSVDCAQIAEKAGADRVELCCGQSEGGVTPSVGALMQARETVTIPVHPIVRPRGGDFCYSSNDFTIMKNDIARIRDLGFAGVVVGVLDTDGHIDMPRMREIMSVSGSLAVTFHRAFDMCQNPMIALKQLAELNVARILTSGQQQNAELGLALLKDLVAATKDQGPIIMAGAGVRLTNMQKFIDAGIRELHSSAGRTVPSTMRYRKAGVTMCADSDVDEFSHYCVDGEVVEAMKSLLVMGSPLAKHT,soluble
10,MTKLFLPNTQATQQLGITLGKNLTAGSVILLEGDLGAGKTTLVQGIGKGLGINESIVSPTFTLINEYIEGRIPLYHLDLYRLKPQEVTGLNLESYWEGIEVTPGIVAIEWAERMPYLPDSYFRVCLKSGEDGDRQLEITAVNCQMIDNLISS,not soluble
11,MTKLQGLQGLKHIKAVVFDMDGTLCLPQPWMFPAMRNAIGLEDKSIDILHFIDTLPTEKEKKEAHDRIELVEAKAMKEMQPQPGLVDIMRYLTKNGISKNICTRNVGAPVETFVKRFIPSELSRFDYIVTREFRPTKPQPDPLLHIASKLNIRPLEMIMVGDSFDDMKSGRSAGCFTVLLKNHVNGHLLLEHKELVDVSVEDLSEIIELIQNMNKESF,not soluble
12,MTKTKFEKVLLIVNPKAGQGDLHTNLTKIVPPLAAAFPDLHILHTKEQGDATKYCQEFASKVDLIIVFGGDGTVFECTNGLAPLEIRPTLAIIPGGTCNDFSRTLGVPQNIAEAAKLITKEHVKPVDVAKANGQHFLNFWGIGLVSEVSNNIDAEEKAKLGKIGYYLSTIRTVKNAETFPVKITYDGQVYEDEAVLVMVGNGEYLGGIPSFIPNVKCDDGTLDIFVVKSTGIQAFKDYIGKKLFEDSNENDIFHVKAKSIHIETEEEKEVDTDGESSLHTPCQIELLQGHFTMIYNPAVV,soluble
13,MTLAIEMKDVMKSFNEKTALRNVNIEVKQGEIFGFLGPSGSGKTTTVKILTSQLLHSVGTVRVLGKDITGPSSIDYKRIGILTDNSGLYERLSIYDNLLLFCDLYDCKKERIDEVLAQVNLLEDKKTLVKKLSKGMKQRVTLARAILHKPDILFLDEPTSALDPVNVQNIHKILKDLNREGTTIFLTTHNMDEAETLCNRIAFLCSGEIVALDTPENLRLQYAKDQIQVVLKDKKKETVQKDELGAKRISEWMKKGELLSIHSYEPTLGDIFIEVTGRGL,not soluble
14,MTLILKRVQLLKDKPRREAIDRFLRQHQLSLEADCEMAIIAEYQQRLVGCGAIAGNVLKCIAIDPSLQGEGLSLKLLTELLTLAYELGRSELFLFTKPCNAALFSGAGFWPIAQAGDRAVLMENSRERLTRYCRQLAMYRQPGRKIGAIVMNANPFTLGHRWLVEQAASQCDWLHLFVVKEDASCFSYHDRFKLIEQGITGIDKVTLHPGSAYLISRATFPGYFLKEQGVVDDCHSQIDLQLFRERLAPALQITHRFVGTEPLCPLTRNYNQRMKSLLEAPGDAPPIEVVELARIEKNGGPVSASRVRELYRQRNWQAVAALVPPGTLSFLMQLAESEHQTA,not soluble
15,MTLIRWNPWQDLNTLQRQLNHLFEEDMLPSTLLERTLTRVPAAELHETAEVIYLKLELPGIDAKDVDLQVTDKAVYISGERKSETKTEDKGVFKSEFQYGKFQRVIPLPARIQNTNVTAEYKDGILNLTLPKAEVEKNKVVKINIESAAGLEHHHHHH,soluble
